What was measured:
RYPWHRFP = target: T1, RYPWHRFP; experiment: peptide microarray of 8mer LY75 peptides, LY75_A1 at 1 µg/mL, anti-human IgG Alexa 647
T1 construct: 8mer of LY75 on the peptide microarray, chart Region 4
T1 peptide: RYPWHRFP
Procedure: (§1) The peptide microarray analysis was performed by LC Sciences, Houston Tex., in brief the method comprised the following steps:—Contiguous 8mer peptides of LY75 protein having […] spanning residues 216 to 1666 of the full length LY75 protein were synthesized and immobilized on a microarray chip. The chip comprised three panels such that the experiment was performed in triplicate. The microarray was addressed with LY75_A1 to identify the peptides to which the antibody bound. The binding assay was performed under the following conditions:—
(§2) The microarray comprising the contiguous peptides in triplicate was washed with 1 mL of binding buffer at 4° C. for 20 min. It was then incubated with 1 μg/mL LY75_A1 in binding buffer (pH 7.0) at 4° C. for 2 hrs. The array was again washed with 0.5 mL of washing buffer at 4° C. for 30 min then incubated with 25 ng/mL anti-human IgG Alexa 647 conjugate in binding buffer (pH 7.0) at 4° C. for 1 hr. The array was again washed with 0.5 mL of washing buffer at 4° C. for 30 min.

SLSCYKVF = target: T2, SLSCYKVF; experiment: as above
T2 construct: 8mer of LY75 on the peptide microarray, chart Region 2
T2 peptide: SLSCYKVF
Procedure: as §1, §2

PWHRFPVT = target: T3, PWHRFPVT; experiment: as above
T3 construct: 8mer of LY75 on the peptide microarray, chart Region 4
T3 peptide: PWHRFPVT
Procedure: as §1, §2

LNNLYKII = target: T4, LNNLYKII; experiment: as above
T4 construct: 8mer of LY75 on the peptide microarray, chart Region 7
T4 peptide: LNNLYKII
Procedure: as §1, §2

PWRRGWHF = target: T5, PWRRGWHF; experiment: as above
T5 construct: 8mer of LY75 on the peptide microarray, chart Region 3
T5 peptide: PWRRGWHF
Procedure: as §1, §2

KKLSRLTY = target: T6, KKLSRLTY; experiment: as above
T6 construct: 8mer of LY75 on the peptide microarray, chart Region 9
T6 peptide: KKLSRLTY
Procedure: as §1, §2

TYSNFHPL = target: T7, TYSNFHPL; experiment: as above
T7 construct: 8mer of LY75 on the peptide microarray, chart Region 5
T7 peptide: TYSNFHPL
Procedure: as §1, §2

TSCSERHF = target: T8, TSCSERHF; experiment: as above
T8 construct: 8mer of LY75 on the peptide microarray, chart Region 6
T8 peptide: TSCSERHF
Procedure: as §1, §2

ELTYSNFH = target: T9, ELTYSNFH; experiment: as above
T9 construct: 8mer of LY75 on the peptide microarray, chart Region 5
T9 peptide: ELTYSNFH
Procedure: as §1, §2

GSRWIQYK = target: T10, GSRWIQYK; experiment: as above
T10 construct: 8mer of LY75 on the peptide microarray, chart Region 10
T10 peptide: GSRWIQYK
Procedure: as §1, §2

FTSCSERH = target: T11, FTSCSERH; experiment: as above
T11 construct: 8mer of LY75 on the peptide microarray, chart Region 6
T11 peptide: FTSCSERH
Procedure: as §1, §2

LSCYKVFH = target: T12, LSCYKVFH; experiment: as above
T12 construct: 8mer of LY75 on the peptide microarray, chart Region 2
T12 peptide: LSCYKVFH
Procedure: as §1, §2

DREFIYLR = target: T13, DREFIYLR; experiment: as above
T13 construct: 8mer of LY75 on the peptide microarray, chart Region 3
T13 peptide: DREFIYLR
Procedure: as §1, §2

YDDREFIY = target: T14, YDDREFIY; experiment: as above
T14 construct: 8mer of LY75 on the peptide microarray, chart Region 3
T14 peptide: YDDREFIY
Procedure: as §1, §2

VYFHQHSI = target: T15, VYFHQHSI; experiment: as above
T15 construct: 8mer of LY75 on the peptide microarray, chart Region 8
T15 peptide: VYFHQHSI
Procedure: as §1, §2

SERHFVSL = target: T16, SERHFVSL; experiment: as above
T16 construct: 8mer of LY75 on the peptide microarray, chart Region 6
T16 peptide: SERHFVSL
Procedure: as §1, §2

SCSERHFV = target: T17, SCSERHFV; experiment: as above
T17 construct: 8mer of LY75 on the peptide microarray, chart Region 6
T17 peptide: SCSERHFV
Procedure: as §1, §2

AVYFHQHS = target: T18, AVYFHQHS; experiment: as above
T18 construct: 8mer of LY75 on the peptide microarray, chart Region 8
T18 peptide: AVYFHQHS
Procedure: as §1, §2

KLSRLTYS = target: T19, KLSRLTYS; experiment: as above
T19 construct: 8mer of LY75 on the peptide microarray, chart Region 9
T19 peptide: KLSRLTYS
Procedure: as §1, §2

SCYKVFHA = target: T20, SCYKVFHA; experiment: as above
T20 construct: 8mer of LY75 on the peptide microarray, chart Region 2
T20 peptide: SCYKVFHA
Procedure: as §1, §2

LTYSNFHP = target: T21, LTYSNFHP; experiment: as above
T21 construct: 8mer of LY75 on the peptide microarray, chart Region 5
T21 peptide: LTYSNFHP
Procedure: as §1, §2

YPWHRFPV = target: T22, YPWHRFPV; experiment: as above
T22 construct: 8mer of LY75 on the peptide microarray, chart Region 4
T22 peptide: YPWHRFPV
Procedure: as §1, §2

RWIQYKGH = target: T23, RWIQYKGH; experiment: as above
T23 construct: 8mer of LY75 on the peptide microarray, chart Region 10
T23 peptide: RWIQYKGH
Procedure: as §1, §2

WIQYKGHC = target: T24, WIQYKGHC; experiment: peptide microarray of 8mer LY75 peptides
T24 construct: 8mer of LY75 on the peptide microarray, chart Region 10
T24 peptide: WIQYKGHC

B1: LY75_A1 (antibody, V domains shown)
VH: EVQLVESGGGLVKPGGSLRLSCAASGFTYSNAWMSWVRQAPGKGLEWVGRIKSKTDGGTTDYAAPVQGRFTISRDDSKNTLYLQMNSLKTEDTAVYYCTIFGVVSFDYWGQGTLVTVSS
VL: DVQMTQSPSSLSASVGDRVTITCRASQSISDYLSWYQQRPGKAPNLLIYAASNLKTGVPSRFSGSGSGTDFTLTISTLQPEDFATYYCQQSYRSPWTFGQGTKVEIKR
notes: detected with anti-human IgG in the microarray; also called antibody LY75_A1; LY75_A1 monoclonal antibody
**Q.** Which results are given for B1?
**A.** binding result (RYPWHRFP): binds; binding result (SLSCYKVF): binds; binding result (PWHRFPVT): binds; binding result (LNNLYKII): binds; binding result (PWRRGWHF): binds; binding result (KKLSRLTY): binds; binding result (TYSNFHPL): binds; binding result (TSCSERHF): binds; binding result (ELTYSNFH): binds; binding result (GSRWIQYK): binds; binding result (FTSCSERH): binds; binding result (LSCYKVFH): binds; binding result (DREFIYLR): binds; binding result (YDDREFIY): binds; binding result (VYFHQHSI): binds; binding result (SERHFVSL): binds; binding result (SCSERHFV): binds; binding result (AVYFHQHS): binds; binding result (KLSRLTYS): binds; binding result (SCYKVFHA): binds; binding result (LTYSNFHP): binds; binding result (YPWHRFPV): binds; binding result (RWIQYKGH): binds; binding result (WIQYKGHC): no binding (tested: 1 µg/mL)

From US20200040086A1 (BERLIN CHEMIE, published 2020)
